According to US10724009B2, “Cannabichromenic acid synthase from Cannabis sativa” (priority 2014, dated 2020):
Where “and” joins values, the source holds several entries; their conditions need not be identical. Equal entries are not always repeated.

Tests used:
mouse tetrad model = conditions: at high concentrations (DeLong et al., 2011); cited from earlier work
recombinant CBCAS = biological target: T1, recombinant CBCAS (Cannabis sativa, UniProt Q33DQ2, H543R/W244C); assay: CBCAS assay: conversion of CBGA to CBCA, products analysed by HPLC/LCMS; format: biochemical; conditions: for inhibition of recombinant CBCAS by additive: FIG. 4, effect of additive on CBCA production, high concentrations; for formation of CBCA from CBGA: recombinant enzyme expressed in Pichia pastoris, CBGA incubated 14 h
T1 construct: alpha-factor signal peptide (vector encoded) (N); made in house; host or cells: Pichia pastoris strain X33
Procedure: FIG. 4 depicts optimal conditions for CBCAS activity. […] Values are expressed as a fraction of CBCA produced (CBCA A265 nm/(CBGA A265 nm+CBCA A265 nm)*100).
Reactions using media were performed by incubating 10 μmols CBGA in 500 μL of clarified culture media for 14 h. Reactions using hydroxyl-apatite fractions were performed with 100 μL of the fraction incubated with 10 nmols of CBGA for 14 h. Completed reactions were acidified with one drop of 4 N HCl and extracted twice with 400 μL of acetonitrile. After centrifugation, the organic phases were pooled and evaporated to dryness. Products were resuspended in 20 μL of 50% methanol, of which 10 μL was analyzed by LCMS. Products were separated with a Waters Alliance HPLC using a binary solvent system (solvent A: 10% acetonitrile, 0.05% formic acid; solvent B: 99.95% acetonitrile, 0.05% formic acid) and an Ascnetis C18 5 cm×2.1 mm 2.7 μm column (Sigma). Initial conditions: 55% A at 0.25 mL/min. Ramp to 5% A from 0-8 min, hold at 5% A for 2.5 min, return to initial conditions over 2 min and equilibrate at initial conditions for 7 min. Ultraviolet spectra were obtained using photodiode array detection at 200-350 nm.

CCCCCc1cc(O)c2c(c1)OC(C)(CCC=C(C)C)C=C2 (stereo not drawn) [CBC, cannabichromene]
THC-like activity in a mouse tetrad model (mouse tetrad model): shows THC-like activity

C[S+](C)[O-] [DMSO, reference compound]
inhibition of recombinant CBCAS by additive (recombinant CBCAS): inhibited by high concentrations

Triton X-100 [reference compound]
inhibition of recombinant CBCAS by additive (recombinant CBCAS): inhibited by high concentrations

B1: recombinant CBCAS: Cannabis sativa cannabichromenic acid synthase (SEQ ID NO:2) expressed in Pichia pastoris with alpha-factor signal peptide (protein)
chain: MNCSTFSFWFVCKIIFFFLSFNIQISIANPQENFLKCFSEYIPNNPANPKFIYTQHDQLYMSVLNSTIQNLRFTSDTTPKPLVIVTPSNVSHIQASILCSKKVGLQIRTRSGGHDAEGLSYISQVPFAIVDLRNMHTVKVDIHSQTAWVEAGATLGEVYYWINEMNENFSFPGGYCPTVGVGGHFSGGGYGALMRNYGLAADNIIDAHLVNVDGKVLDRKSMGEDLFWAIRGGGGENFGIIAACKIKLVVVPSKATIFSVKKNMEIHGLVKLFNKWQNIAYKYDKDLMLTTHFRTRNITDNHGKNKTTVHGYFSSIFLGGVDSLVDLMNKSFPELGIKKTDCKELSWIDTTIFYSGVVNYNTANFKKEILLDRSAGKKTAFSIKLDYVKKLIPETAMVKILEKLYEEEVGVGMYVLYPYGGIMDEISESAIPFPHRAGIMYELWYTATWEKQEDNEKHINWVRSVYNFTTPYVSQNPRLAYLNYRDLDLGKTNPESPNNYTQARIWGEKYFGKNFNRLVKVKTKADPNNFFRNEQSIPPLPPRHH
modifications: alpha-factor signal peptide; Cannabis Sativa
temperature of maximal activity (recombinant CBCAS; 35, 40, 45 and 50° C. tested): 40 °C | pH optimum (recombinant CBCAS; FIG. 4, effect of buffer and buffer pH on CBCA production): 5.5 | temperature optimum (recombinant CBCAS; FIG. 4, effect of incubation temperature on CBCA production): 40 degrees | pH of maximal activity (recombinant CBCAS; pH 3.5 to 7 tested): 5 and 5.5 | formation of CBCA from CBGA (recombinant CBCAS): catalyzed the formation of CBCA from CBGA | formation of CBCA from CBGA (recombinant CBCAS; listed as CBCAS): produces CBCA
